The record followed here is publication PMC10397247.

The target of one test is T1, 4H967-AA.
T1 chain: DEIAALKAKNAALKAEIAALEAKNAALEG
The test can be described thus: two-hybrid library CCmax.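 Note: natural log of median RNA to DNA barcode read ratio; higher means stronger binding.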 As to conditions: mean of both orientations.

For a further test, the target named is T2, 4H918-AA.
T2 chain: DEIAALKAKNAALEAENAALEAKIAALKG
Put plainly: two-hybrid library CCmax.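 Note: natural log of median RNA to DNA barcode read ratio; higher means stronger binding.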

The target of another test is T3, 4H953-AA.
T3 chain: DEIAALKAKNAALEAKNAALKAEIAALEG
Put plainly: two-hybrid library CCmax.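 Note: natural log of median RNA to DNA barcode read ratio; higher means stronger binding.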 As to conditions: mean of both orientations.

The next test deals with T4, 4H3056-AA.
T4 chain: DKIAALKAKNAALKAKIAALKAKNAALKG
The test can be described thus: two-hybrid library CCmax.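 Note: natural log of median RNA to DNA barcode read ratio; higher means stronger binding.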 The note with it: mean of both orientations.

The target of a further test is T5, 4H3413-AA.
T5 chain: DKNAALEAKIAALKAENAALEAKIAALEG
The test can be described thus: two-hybrid library CCmax.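 Note: natural log of median RNA to DNA barcode read ratio; higher means stronger binding.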 The note with it: mean of both orientations.

For a further test, the target named is T6, 4H3606-AA.
T6 chain: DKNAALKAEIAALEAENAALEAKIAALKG
Put plainly: two-hybrid library CCmax.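 Note: natural log of median RNA to DNA barcode read ratio; higher means stronger binding.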 As to conditions: mean of both orientations.

Another test deals with T7, 4H3588-AA.
T7 chain: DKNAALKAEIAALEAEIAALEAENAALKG
The test can be described thus: two-hybrid library CCmax. The note with it: mean of both orientations.

The next test concerns the target T8, 4H697-AA.
T8 chain: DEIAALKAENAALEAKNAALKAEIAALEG
The test can be described thus: two-hybrid library CCmax. The note with it: mean of both orientations.

For the next test, the target named is T9, 4H3133-AA.
T9 chain: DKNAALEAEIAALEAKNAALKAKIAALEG
The test can be described thus: two-hybrid library CCmax. The note with it: mean of both orientations.

Another test deals with T10, 4H3631-AA.
T10 chain: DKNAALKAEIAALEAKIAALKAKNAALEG
Put plainly: two-hybrid library CCmax. As to conditions: mean of both orientations.

The next test concerns the target T11, 4H3162-AA.
T11 chain: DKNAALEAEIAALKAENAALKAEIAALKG
The test can be described thus: two-hybrid library CCmax. The note with it: mean of both orientations.

The target in the next test is T12, 4H3718-AA.
T12 chain: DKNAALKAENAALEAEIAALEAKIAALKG
Put plainly: two-hybrid library CCmax. As to conditions: mean of both orientations.

For another test, the target named is T13, 4H2907-AA.
T13 chain: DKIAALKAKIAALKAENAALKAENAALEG
The test can be described thus: two-hybrid library CCmax. The note with it: mean of both orientations.

A further test deals with T14, 4H3865-AA.
T14 chain: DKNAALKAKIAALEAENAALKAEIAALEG
The test can be described thus: two-hybrid library CCmax. As to conditions: mean of both orientations.

The target of the next test is T15, 4H3697-AA.
T15 chain: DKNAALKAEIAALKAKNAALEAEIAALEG
The test can be described thus: two-hybrid library CCmax.

In the next test the target is T16, 4H2620-AA.
T16 chain: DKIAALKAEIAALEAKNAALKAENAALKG
Put plainly: two-hybrid library CCmax.

The target of a further test is T17, 4H32-AA.
T17 chain: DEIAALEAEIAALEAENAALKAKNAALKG
The test can be described thus: two-hybrid library CCmax. The note with it: mean of both orientations.

A further test addresses T18, 4H340-AA.
T18 chain: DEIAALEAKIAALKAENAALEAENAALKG
Put plainly: two-hybrid library CCmax. As to conditions: mean of both orientations.

A further test deals with T19, 4H384-AA.
T19 chain: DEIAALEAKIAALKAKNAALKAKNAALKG
Put plainly: two-hybrid library CCmax. The note with it: mean of both orientations.

The next test addresses T20, 4H982-AA.
T20 chain: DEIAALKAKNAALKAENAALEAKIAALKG
The test can be described thus: two-hybrid library CCmax. The note with it: mean of both orientations.

The target of the next test is T21, 4H3378-AA.
T21 chain: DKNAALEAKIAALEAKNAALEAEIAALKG
The test can be described thus: two-hybrid library CCmax. The note with it: mean of both orientations.

The next test has as its target T22, 4H2648-AA.
T22 chain: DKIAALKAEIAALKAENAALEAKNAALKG
Put plainly: two-hybrid library CCmax. As to conditions: mean of both orientations.

Another test has as its target T23, O8-bA.
T23 chain: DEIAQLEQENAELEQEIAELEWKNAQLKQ
Put plainly: two-hybrid library CCNG1.

The next test has as its target T24, O9-bA.
T24 chain: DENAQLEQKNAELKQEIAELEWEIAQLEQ
The test can be described thus: two-hybrid library CCNG1.

B1: 4H918-AA (peptide)
chain: DEIAALKAKNAALEAENAALEAKIAALKG
As for B1, the interaction score with 4H967-AA was -0.889; in the test with 4H918-AA, 1.24; in the test with 4H953-AA, 2.09.

B2: 4H2620-AA (peptide)
chain: DKIAALKAEIAALEAKNAALKAENAALKG
On to B2, for which the interaction score is -1.79 in the test with 4H3056-AA; -0.901 with 4H3413-AA; -0.861 in the test with 4H3606-AA; 0.147 with 4H3588-AA; -1.54 in the test with 4H697-AA; -1.58 with 4H3133-AA. Besides, the interaction score was -0.556 in the test with 4H3631-AA; -1.82 with 4H3162-AA; -0.835 with 4H3718-AA; 1.23 in the test with 4H2907-AA; -1.61 with 4H3865-AA; -1.64 with 4H3697-AA. For the same molecule, the interaction score in the test with 4H2620-AA is 0.586; with 4H32-AA, 1.05; with 4H340-AA it was 2.42; with 4H384-AA, 0.949; with 4H982-AA, -0.887; with 4H3378-AA, -1.66. Besides, the interaction score with 4H2648-AA was found to be 1.77.

B3: O8-bA (peptide)
chain: DEIAQLEQENAELEQEIAELEWKNAQLKQ
With B3, the results for the interaction score in the test with O8-bA and with O9-bA were -0.832 and 0.317, respectively.
